Measured values taken from patent US5919635A (ZymoGenetics, Inc., priority 1995, dated 1999).

Key:
[1] = test system: Human Glucagon Receptor (pLJ6') in COS 7 cells; assay: In situ ^125 I-glucagon binding with emulsion autoradiography, pLJ6'-transfected COS 7 cells; conditions: 72 hours after transfection
Method: (§1) To prepare the transfectants for the ^125 I-glucagon binding assay, the spent media were aspirated from the cells, and the cells were washed three times with cold (4° C.) PBS. After the final wash, the cells were covered with Binding Media (Table 2) and incubated for ten minutes at room temperature. The media were replaced with 0.5 ml of Binding Media containing 0.5 nM ^125 I-glucagon (Amersham receptor grade, specific activity 2000 Ci/mmole; Amersham). The cells were then rocked at 30° C. for one hour. […] The media were aspirated from the cells, and the cells were washed three times with cold (4° C.) PBS. After the final wash, the cells were fixed with 1 ml of 2.5% glutaraldehyde in PBS at room temperature for 20 minutes. The glutaraldehyde was removed, and the cells were rinsed three time with PBS. The slides were air dried for one hour at room temperature, dipped in liquid photographic emulsion (Eastman Kodak Co., Rochester, N.Y.) according the manufacturer's directions, and dried at room temperature in the dark for at least 30 minutes. The slides were then plated in a light-proof box for 72 hours at 4° C.
Plasmid pLJ6' was transfected into COS 7 cells using a DEAE-dextran procedure described above. The cells were grown on glass chamber slides (as described in Example 3) for 72 hours after transfection.

rat glucagon receptor = target: T1, rat glucagon receptor (Rattus norvegicus, UniProt P30082); assay: cAMP response of clone KZ6/rGR-DHFR-2 by cAMP [^125 I] scintillation proximity assay; type: cell-based; conditions: 10 minutes at 37° C., 10 μM IBMX, read-out: ED50 (the source's name)
T1 construct: pLJ4 contained an approximately 2 kb insert encoding a 485 amino acid protein; expressed in transfected cells; host or cells: BHK/KZ6-19-46 (BHK570 with CRE-luciferase plasmid KZ6), clone KZ6/rGR-DHFR-2
Method: Briefly, 100 μl of 2×10^5 cells per ml KZ6/rGR-DHFR-2 cells were plated into the wells of a multi-well culture dish and grown overnight in selection media.
The cells were incubated with the agonists for 10 minutes at 37° C., 5% CO2. Following incubation, the cells were lysed by the addition of 200 μl of boiling water to each well. After 15 minutes the supernatants were collected and diluted 1:5 or 1:40 in acetate buffer (cAMP [^125 I] Scintillation Proximity Assay System (Amersham)). Samples were acetylated using triethylamine and acetic anhydride according to the protocol provided by the manufacturer.
A 100 μl aliquot of each acetylated sample was combined with 75 μl of ^125 I-cAMP, 75 μl anti-succinyl cAMP antisera and 75 μl of donkey anti-rabbit IgG coupled SPA beads (all assay solutions provided in the cAMP [^125 I] Scintillation Proximity Assay System (Amersham)) in a well of an LKB T-tray. The trays were sealed and incubated overnight with continuous shaking on a rotary platform shaker at 200 rpm. The samples were counted in a 1205 BETAPLATE liquid scintillation counter (Pharmacia LKB Instruments Inc., Gaithersburg, Md.). A standard curve of 2-128 fmol acetylated cAMP was also run. Total ^125 I-cAMP bound and non-specific binding were also determined.

[2] = target: T2, cloned receptor (rat glucagon receptor, pLJ4) (Rattus norvegicus, UniProt P30082); assay: Competition binding / Scatchard analysis with ^125 I-glucagon on membranes of pLJ4 BHK transfectants
T2 construct: pLJ4 contained an approximately 2 kb insert encoding a 485 amino acid protein; expressed in transfected cells; host or cells: BHK570
Method: Membranes from the pLJ4 BHK transfectants were compared with rat liver membrane preparations for the ability to bind ^125 I-glucagon. Membranes were prepared essentially described by Rodbell et al. (J. Biol Chem. 246:1861-1871, 1971, which is incorporated by reference herein in its entirety). Two batches of liver membranes were each prepared from approximately 80 gm of liver from 12 to 16 decapitated young female rats. The livers were removed quickly and placed into an iced beaker. The livers were separated into ten-gram portions. The portions were minced with scissors, and connective tissue was removed during the mincing procedure. The portions were separately homogenized in a Dounce homogenizer. To each portion, 25 ml of Medium (Table 2) was added to the minced tissue in the homogenizer, and the tissue was homogenized in an ice bucket with eight vigorous strokes of the loose pestle. After homogenization, the homogenates were pooled into 450 ml of cold Medium (Table 2). The pooled homogenates were stirred for 3 minutes and filtered through two layers of cheesecloth followed by filtering through four layers of cheesecloth. The homogenates were then centrifuged for 30 minutes at 1500×g at 4° C. The supernatants were discarded, and the pellets were pooled into a clean Dounce homogenizer. The pellets were resuspended with three gentle strokes of the loose pestle. The resuspended pellets were decanted into a 250 ml graduate containing 62 ml of 69% Sucrose Solution (Table 2). Distilled water was added to a final volume of 110 ml, and the mixture was thoroughly mixed and kept cold. The concentration of the solution was adjusted to 44.0%+/-0.1% using 69% sucrose or water as measured by a refractometer (Bausch & Lomb, Rochester, N.Y.). […]
To each tube 100 μl of 2× binding buffer; 20 μl of ^125 I-glucagon (Amersham); 20 μl of 1 mM NaHCO3; 20 μl 10 mM HOAc, 0.5% BSA (Novo Nordisk N/A, Bagsvaerd, Denmark); and 40 μl of distilled water were added. […] The supernatants from each sample were aspirated, and the pellets were counted. […]

[3] = test system: Human Glucagon Receptor (pLJ6') in BHK570 cells; assay: In situ binding of iodinated glucagon, pLJ6'-transfected BHK570 clones
Method: as §1
Transfected cells were selected in the presence of G418 until single colonies were visible. Single colonies were cloned using cloning cylinders.

T2 sequence (P30082 27-485): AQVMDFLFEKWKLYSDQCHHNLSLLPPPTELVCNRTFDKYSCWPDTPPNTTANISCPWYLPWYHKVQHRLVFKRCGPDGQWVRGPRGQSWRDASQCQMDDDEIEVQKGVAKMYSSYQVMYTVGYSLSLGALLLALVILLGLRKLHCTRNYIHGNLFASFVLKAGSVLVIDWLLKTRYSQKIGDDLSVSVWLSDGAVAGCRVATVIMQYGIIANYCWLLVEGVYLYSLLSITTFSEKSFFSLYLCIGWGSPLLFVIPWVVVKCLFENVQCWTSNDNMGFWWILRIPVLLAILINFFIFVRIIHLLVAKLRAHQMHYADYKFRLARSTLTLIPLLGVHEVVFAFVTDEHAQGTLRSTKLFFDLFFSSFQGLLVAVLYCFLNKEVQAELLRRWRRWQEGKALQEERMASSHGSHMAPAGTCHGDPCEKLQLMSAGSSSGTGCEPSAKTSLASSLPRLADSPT
T1 sequence (P30082 27-485): as above

glucagon: 29 amino acid hormone produced by the alpha cells of pancreatic islets; human glucagon (Sigma)
cells transfected with pLJ6' that bound glucagon in a specific fashion [1]: Greater than 50% | EC50 (rat glucagon receptor): 0.25 nM | Kd ([2]; Scatchard analysis, cloned receptor, BHK transfectant membranes, 30 minutes at 30° C., read-out: apparent Kd): 50 nM | ability to compete for ^125 I-glucagon binding ([2]; micromolar amounts (Table 7: 1 μM glucagon and des-His^1 [Glu^9]glucagon amide)): able to compete | binding of glucagon by clones (in words) [3]: shown to bind glucagon
